The source of these data is paper PMC11190991, “Encapsulation of Transketolase into In Vitro-Assembled Protein Nanocompartments Improves Thermal Stability” (ACS Applied Bio Materials, 2024).

Series [1] deals with Thermotoga maritima encapsulin (T = 1 capsid shell) (Thermotoga maritima) (UniProt Q9WZP2). The series can be described thus: SEC; in vitro loading during reassembly (10 μM encapsulin monomer, cargo at stated molar ratio), SEC on Superose 6 to remove non-encapsulated cargo, co-eluted cargo seen by SDS-PAGE and quantified by densitometry against standard curves.
The target of series [2] is E. coli transketolase with C-terminal T. maritima cargo loading peptide (E. coli | T. maritima).
Series [3] deals with Myxococcus xanthus encapsulin (T = 1 and T = 3 capsid shells) (Myxococcus xanthus) (UniProt Q1D6H4). The series can be described thus: SEC; in vitro loading during reassembly (10 μM encapsulin monomer, cargo at stated molar ratio), SEC on Superose 6 to remove non-encapsulated cargo, co-eluted cargo seen by SDS-PAGE and quantified by densitometry against standard curves.
Series [4] shares this target. The series can be described thus: co-purification after co-expression + SDS-PAGE densitometry; in vivo loading: sfGFP-CLP co-expressed with Strep-tagged encapsulin in E. coli, capsids purified (SEC purified samples), cargo quantified by SDS-PAGE densitometry; single experiment.
Series [5] addresses Thermotoga maritima encapsulin (T = 1 capsid shell) (Thermotoga maritima) (UniProt Q9WZP2). Described as above.
Series [6] concerns the molecule itself. The series can be described thus: native gel or EMSA; BN-PAGE of samples disassembled in denaturant: 6 M GuHCl, 8 M urea (20 mM Tris-Cl pH 7.5), 0.15 M HCl pH 1.0 or 0.15 M NaOH pH 13.0.
The target in the next series is Q9WZP2. The series can be described thus: SEC; Superose 6 10/300 GL, 20 mM Tris-Cl, 50 mM NaCl, pH 7.5; A280 peak area of higher-order structures after reassembly against before disassembly; Tm_encap from 0.15 M NaOH, Mx_encap from 8 M urea.

Take “E. coli transketolase with C-terminal T. maritima cargo loading peptide (enzyme)”: the stoichiometry N (dimers per capsid) in series [1] is 2.6. Besides, the end-point transketolase activity (erythrulose from HPA and GA) of TK-TmCLP encapsulated in Tm encap, against free TK (100%) in series [2] was 50 % drop.
Consider “superfolder GFP with C-terminal M. xanthus cargo loading peptide”, for which the stoichiometry N (copies per capsid) in series [3] stood at 20; in series [4] it was 31.
As to “superfolder GFP with C-terminal T. maritima cargo loading peptide”, in series [1], the stoichiometry N (copies per capsid) came out at 15. Besides, the stoichiometry N (molecules per capsid) in series [5] was 2.94.

B1: Thermotoga maritima encapsulin (T = 1 capsid shell) (natural protein, UniProt Q9WZP2 1-265, looked up)
chain: MEFLKRSFAPLTEKQWQEIDNRAREIFKTQLYGRKFVDVEGPYGWEYAAHPLGEVEVLSDENEVVKWGLRKSLPLIELRATFTLDLWELDNLERGKPNVDLSSLEETVRKVAEFEDEVIFRGCEKSGVKGLLSFEERKIECGSTPKDLLEAIVRALSIFSKDGIEGPYTLVINTDRWINFLKEEAGHYPLEKRVEECLRGGKIITTPRIEDALVVSERGGDFKLILGQDLSIGYEDREKDAVRLFITETFTFQVVNPEALILLKF
notes: T = 1 capsid, 1.97 MDa; also called T. maritima encapsulin; source: E. coli BL21 Star (DE3), purified (Strep-TactinXT); disassembled and reassembled in vitro; also co-expressed with sfGFP-TmCLP for in vivo loading; not shown: Strep-Tag II (after a GSG linker), C-terminal, kept; copies: 60
Consider B1, for which the “stoichiometry N” value in series [6] amounted to 2. Moreover, in the series with Q9WZP2, the “recovery of higher-order structures after reassembly (SEC peak area, 8-14 mL)” value is listed as “we determined the recovery to be 82%”.
